Data from patent US20140017242A1, “ANTI-BRADYKININ B2 RECEPTOR (BKB2R) MONOCLONAL ANTIBODY” (Diamedica, Inc., priority 2010, published 2014).
Changes are numbered by the printed parent chain. Where no end group is shown, it is not given here.

T1: human BKB2R-derived epitope peptide (SEQ ID NO:73), PEG-biotin (human, also: PEG-biotin, site not given here)
T1 construct: also called immunogenic human BKB2R peptide fragment
T1 peptide: KEYSDEGHNVTAC

B1: humanized anti-BKB2R antibody L1/H2 (antibody, human IgG2, kappa, V domains shown)
VH: EVQLVESGGGLVQPGGSLRLSCVASGFTFSDYWMSWVRQAPGKGLEWVAEIRLKSDNYATHYAESVKGRFTISRDDAKNSLYLQMNSLRAEDTAVYYCTRDYYAMEYWGQGTLVTVSS
VL: DIVMTQSPLSLPVTPGEPASISCRSSQTIVHSNGKTYLEWYLQKPGQSPQLLIYKVSNRFSGVPDRFSGSGSGTDFTLKISRVEAEDVGVYYCFQASHVPYTFGQGTKLEIKR
B2: chimeric/humanized anti-BKB2R antibody L1/HC (antibody, human IgG2, V domains shown)
VH: EVKLEESGGGLVQPGGSMKLSCVVSGFTFSDYWMSWVRHSPEMGLEWVAEIRLKSDNYATHYAESVKGRFTISRDDSKSRLYLQINSLRGEDTGIYYCTRDYYAMEYWGQGTSVTVSS
VL: B1 VL
notes: not shown: human IgG2 constant region
B3: humanized anti-BKB2R antibody L2/H1 (antibody, human IgG2, kappa, V domains shown)
VH: B1 VH with V23A, D76N
VL: B1 VL with D75E
B4: humanized anti-BKB2R antibody L2/H2 (antibody, human IgG2, kappa, V domains shown)
VH: B1 VH
VL: B1 VL with D75E
notes: also called H2/L2
B5: chimeric/humanized anti-BKB2R antibody L2/HC (antibody, human IgG2, V domains shown)
VH: B2 VH
VL: B1 VL with D75E
notes: as for B2
B6: L2/H2: humanized anti-BKB2R mAb, light chain L2 (SEQ ID NO:9), heavy chain H2 (SEQ ID NO:4) (antibody, V domains shown)
VH: B1 VH
VL: DIVMTQSPLSLPVTPGEPASISCRSSQTIVHSNGKTYLEWYLQKPGQSPQLLIYKVSNRFSGVPDRFSGSGSGTEFTLKISRVEAEDVGVYYCFQASHVPYTFGQGTKLEIK
modifications: Humanized H2 Heavy Chain Variable Region VH; Humanized L2 Light Chain Variable Region VL
B7: H37/L37: humanized anti-BKB2R mAb, heavy chain H37 (SEQ ID NO:5), light chain L37 (SEQ ID NO:10) (antibody, V domains shown)
VH: B1 VH with V23A, S35D, A49G, E64A, A77S, R89K, A90T, L113T
VL: B6 VL with S7T, P12S, E17Q, R24K, E39Y, N58S, E75D
modifications: Humanized H37 Heavy Chain Variable Region VH; Humanized L37 Light Chain Variable Region VL
B8: H37/L38: humanized anti-BKB2R mAb, heavy chain H37 (SEQ ID NO:5), light chain L38 (SEQ ID NO:11) (antibody, V domains shown)
VH: B1 VH with V23A, S35D, A49G, E64A, A77S, R89K, A90T, L113T
VL: B6 VL with S7T, P15S, E39D, F60A, E75D, Q105G, L109V
modifications: Humanized H37 Heavy Chain Variable Region VH; Humanized L38 Light Chain Variable Region VL
B9: H38/L37: humanized anti-BKB2R mAb, heavy chain H38 (SEQ ID NO:6), light chain L37 (SEQ ID NO:10) (antibody, V domains shown)
VH: B1 VH with V5L, R19K, V23A, A24V, A49S, E64D, A77S, S80T
VL: B6 VL with S7T, P12S, E17Q, R24K, E39Y, N58S, E75D
modifications: Humanized H38 Heavy Chain Variable Region VH; Humanized L37 Light Chain Variable Region VL
B10: H37/L39: humanized anti-BKB2R mAb, heavy chain H37 (SEQ ID NO:5), light chain L39 (SEQ ID NO:12) (antibody, V domains shown)
VH: B1 VH with V23A, S35D, A49G, E64A, A77S, R89K, A90T, L113T
VL: B6 VL with I2V, S7T, P12S, E17Q, R24K, E75D
modifications: Humanized H37 Heavy Chain Variable Region VH; Humanized L39 Light Chain Region VL
B11: H39/L38: humanized anti-BKB2R mAb, heavy chain H39 (SEQ ID NO:7), light chain L38 (SEQ ID NO:11) (antibody, V domains shown)
VH: EVKLVESGGGLVQPGGSLRLSCAVSGFTFSDYWMDWVRQAPGKGLEWVAEIRLKSDNYATHYAASVKGRFTISRDDSKSRLYLQMNSLKTEDTAVYYCTRDYYAMEYWGQGTTVTVSS
VL: B6 VL with S7T, P15S, E39D, F60A, E75D, Q105G, L109V
modifications: Humanized H39 Heavy Chain Variable Region VH; Humanized L38 Light Chain Variable Region VL
B12: H39/L39: humanized anti-BKB2R mAb, heavy chain H39 (SEQ ID NO:7), light chain L39 (SEQ ID NO:12) (antibody, V domains shown)
VH: B11 VH
VL: B6 VL with I2V, S7T, P12S, E17Q, R24K, E75D
modifications: Humanized H39 Heavy Chain Variable Region VH; Humanized L39 Light Chain Region VL

Target: T1, human BKB2R-derived epitope peptide …
Assay: BLI (Octet), peptide-PEG-biotin on streptavidin sensor, antibody 500 nM
Settings: not given
Protocol: (§1) For the Octet study, antibodies were analyzed by kinetic titration of the antibodies. Antibodies were prepared in kinetic buffer (0.001 M phosphate buffered saline (NaCl 0.0138 M; KCl-0.00027 M); pH 7.4, at 25° C., 0.1 mg/ml BSA, 0.002% Tween and 0.005% Sodium Azide) followed by 1:2 serial dilutions.
(§2) Sensor Prep: Streptavidin biosensors (FortéBio Inc, Menlo Park, Calif.) were coated by incubation in a solution containing a peptide ([…]-PEG-biotin) (Biosyn, Lewisville, Tex.) at 50 μg/ml (300 seconds/1000 rpm shaking). 96 well half-volume plates were used for testing. 90 μl of sample was plated per well. Sensors were allowed to equilibrate to baseline in kinetic buffer (60 seconds/1000 rpm). The sensors were then placed into the various antibody dilutions to allow binding (association) to the probe for 500 seconds/1000 rpm, and measurements were taken. The sensors were then moved into kinetic buffer without antibody for dissociation (500 seconds/1000 rpm), and measurements were taken. Octet system software calculated kinetic constants for on rate/off rate/affinity.
(§3) For test humanized monoclonal antibodies, the highest concentration used was 500 nM followed by 1:2 dilutions. Each concentration was tested twice. The HC and LC represented the mouse original 5F12G1 VH and VL sequences.

| Kd [nM] | Max Response | koff [s⁻¹] | kon [M⁻¹ s⁻¹] | Molecule |
| --- | --- | --- | --- | --- |
| 403 | 0.161 | 0.976 | 2.43e+06 | B1 |
| 3980 | 0.194 | 2.16 | 543000 | B2 |
| 4.19 | 0.172 | 0.00507 | 1.21e+06 | B3 |
| 22.5 | 0.171 | 0.0223 | 992000 | B4 |
| 4530 | 0.143 | 0.655 | 145000 | B5 |

These molecules were tested against T2, human BKB2R-derived epitope peptide, SE ID NO:73 (Homo sapiens, UniProt P30411) (assay: ForteBio Octet binding kinetics to the BKB2R epitope peptide). Settings: Conc. 250 nM.
T2 construct: purchased Biosyn, Lewisville, Tex
Protocol: Proteins corresponding to all combinations of humanized or chimeric (5F12G1 VH and VL on human IgG2 backbone) antibodies were tested for binding to the human BKB2R-derived epitope peptide, SE ID NO:73.
A ForteBio (Menlo Park, Calif., USA) Octet® platform was used to analyze the binding affinities and binding characteristics of the humanized monoclonal antibodies to the peptide epitope (SEQ ID NO:73) and compared to the original mouse monoclonal 5F12G1. This platform employed label-free technology for measuring biomolecular interactions by optical analysis of the interference pattern of white light reflected from two surfaces: a layer of immobilized protein on the biosensor tip, and an internal reference layer. Any change in the number of molecules bound to the biosensor tip caused a shift in the interference pattern that was measured in real-time. Binding specificity, and rates of association and dissociation were monitored.
as §1, §2
[…] […] Each concentration was tested twice. The HC and LC represented the mouse original 5F12G1 VH and VL sequences.

| Molecule | kdis [s⁻¹] | kon [M⁻¹ s⁻¹] |
| --- | --- | --- |
| B6 | 0.0359 | 1.76e+06 |

Same assay, conditions: Conc. 500 nM

| Molecule | kdis [s⁻¹] | kon [M⁻¹ s⁻¹] |
| --- | --- | --- |
| B7 | 1.18 | 1.55e+06 |
| B8 | 2.08 | 9.47e+06 |
| B9 | 29.4 | 9.44e+06 |
| B10 | 1.98 | 1.11e+06 |
| B6 | 0.0223 | 992000 |
| B11 | 4.9 | 6.44e+06 |
| B12 | 1.26 | 729000 |

Target: T1, human BKB2R-derived epitope peptide …
Assay: BLI (Octet), peptide-PEG-biotin on streptavidin sensor, antibody 250 nM
Settings: not given
Protocol: as §1, §2, §3

| Kd [nM] | Max Response | koff [s⁻¹] | kon [M⁻¹ s⁻¹] | Molecule |
| --- | --- | --- | --- | --- |
| 2050 | 0.174 | 0.719 | 350000 | B1 |
| 3040 | 0.148 | 0.728 | 239000 | B2 |
| 20.3 | 0.18 | 0.00438 | 216000 | B3 |
| 20.4 | 0.171 | 0.0359 | 1.76e+06 | B4 |
| 337 | 0.204 | 0.732 | 2.17e+06 | B5 |
